According to the supplement of paper PMC6379048:

Legend:
Assay in all cases: EC50 of free RNA motif oligo competing protein binding to immobilised probe
RPS3 = RPS3 (UniProt P23396)
Procedure, shortened: (§1)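 To obtain EC50, data were fitted with a four-parameter log-logistic model; Kd was then EC50 multiplied by a protein-dependent depletion factor. Beforehand, free RNA oligos (0 nM to 30 μM) were pre-incubated with HEK293-FT lysate (2.5 mg protein/well) for 1 h at 4°C. The lysate then spent 30 min at 4°C with the same 5′-amino-C6 oligos coupled to NHS-Sepharose beads, and bound proteins were quantified by label-free LC-MS/MS, normalised to the control.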

ANGEL2 = molecular target: T1, ANGEL2 (UniProt Q5VTE6)
T1 sequence: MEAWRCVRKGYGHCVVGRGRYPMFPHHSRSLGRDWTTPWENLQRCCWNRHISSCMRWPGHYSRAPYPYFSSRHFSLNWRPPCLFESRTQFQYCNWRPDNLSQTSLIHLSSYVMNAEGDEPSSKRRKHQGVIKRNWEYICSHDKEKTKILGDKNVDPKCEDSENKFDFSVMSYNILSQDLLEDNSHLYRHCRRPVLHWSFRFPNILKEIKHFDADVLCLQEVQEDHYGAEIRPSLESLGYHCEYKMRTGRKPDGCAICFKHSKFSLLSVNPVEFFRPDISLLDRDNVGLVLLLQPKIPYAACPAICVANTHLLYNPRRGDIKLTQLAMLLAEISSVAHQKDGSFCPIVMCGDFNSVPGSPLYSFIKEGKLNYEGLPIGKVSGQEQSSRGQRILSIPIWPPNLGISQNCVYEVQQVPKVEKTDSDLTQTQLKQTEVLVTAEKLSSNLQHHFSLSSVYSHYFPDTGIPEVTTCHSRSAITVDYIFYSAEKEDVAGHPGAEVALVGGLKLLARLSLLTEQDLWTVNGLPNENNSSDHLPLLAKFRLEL
Procedure, shortened: as §1

DHX30 = molecular target: T2, DHX30 (UniProt Q7L2E3)
T2 sequence: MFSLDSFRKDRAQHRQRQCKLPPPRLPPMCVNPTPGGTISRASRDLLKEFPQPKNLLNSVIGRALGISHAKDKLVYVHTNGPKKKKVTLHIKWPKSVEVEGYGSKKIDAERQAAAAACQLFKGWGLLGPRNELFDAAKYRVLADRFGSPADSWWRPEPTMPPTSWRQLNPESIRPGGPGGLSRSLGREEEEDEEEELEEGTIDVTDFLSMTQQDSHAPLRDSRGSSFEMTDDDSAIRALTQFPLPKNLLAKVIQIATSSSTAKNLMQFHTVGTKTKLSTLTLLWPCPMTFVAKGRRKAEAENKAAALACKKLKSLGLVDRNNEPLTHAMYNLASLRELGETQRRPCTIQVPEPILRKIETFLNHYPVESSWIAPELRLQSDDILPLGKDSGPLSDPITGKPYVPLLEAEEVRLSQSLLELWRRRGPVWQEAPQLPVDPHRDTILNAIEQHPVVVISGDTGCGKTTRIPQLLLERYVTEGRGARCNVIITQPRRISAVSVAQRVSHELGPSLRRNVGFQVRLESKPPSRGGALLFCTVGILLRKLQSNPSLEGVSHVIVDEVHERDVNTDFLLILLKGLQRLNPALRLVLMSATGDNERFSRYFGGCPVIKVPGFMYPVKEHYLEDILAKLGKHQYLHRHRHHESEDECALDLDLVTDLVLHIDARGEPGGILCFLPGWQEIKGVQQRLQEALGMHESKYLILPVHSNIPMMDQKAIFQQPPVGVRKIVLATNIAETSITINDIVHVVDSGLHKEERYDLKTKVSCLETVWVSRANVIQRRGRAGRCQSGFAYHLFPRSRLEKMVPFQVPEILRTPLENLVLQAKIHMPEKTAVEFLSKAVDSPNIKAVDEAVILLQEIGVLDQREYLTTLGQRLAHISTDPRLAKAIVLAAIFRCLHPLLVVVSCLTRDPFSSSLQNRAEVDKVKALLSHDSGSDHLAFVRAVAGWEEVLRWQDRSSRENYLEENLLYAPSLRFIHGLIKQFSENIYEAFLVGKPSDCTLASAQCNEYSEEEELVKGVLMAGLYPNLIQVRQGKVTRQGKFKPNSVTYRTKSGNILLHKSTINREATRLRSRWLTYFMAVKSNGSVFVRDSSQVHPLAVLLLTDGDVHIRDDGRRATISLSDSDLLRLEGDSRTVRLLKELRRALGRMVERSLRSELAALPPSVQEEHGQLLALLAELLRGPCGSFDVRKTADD
Procedure, shortened: as §1

ICT1 = ICT1 (UniProt Q14197)
Procedure, shortened: as §1

IGF2BP3 = IGF2BP3 (UniProt O00425)
Procedure, shortened: as §1

IGF2BP2 = IGF2BP2 (UniProt Q9Y6M1)
Procedure, shortened: as §1

MRPL21 = MRPL21 (UniProt Q7Z2W9)
Procedure, shortened: as §1

MRPL1 = MRPL1 (UniProt Q9BYD6)
Procedure, shortened: as §1

AGO1 = AGO1 (UniProt Q9UL18)
Procedure, shortened: as §1

TUBB2A = TUBB2A (UniProt Q13885)
Procedure, shortened: as §1

RPL7 = RPL7 (UniProt P18124)
Procedure, shortened: as §1

SRRM2 = SRRM2 (UniProt Q9UQ35)
Procedure, shortened: as §1

DAP3 = DAP3 (UniProt P51398)
Procedure, shortened: as §1

IGF2BP2, sequence (Q9Y6M1 whole entry): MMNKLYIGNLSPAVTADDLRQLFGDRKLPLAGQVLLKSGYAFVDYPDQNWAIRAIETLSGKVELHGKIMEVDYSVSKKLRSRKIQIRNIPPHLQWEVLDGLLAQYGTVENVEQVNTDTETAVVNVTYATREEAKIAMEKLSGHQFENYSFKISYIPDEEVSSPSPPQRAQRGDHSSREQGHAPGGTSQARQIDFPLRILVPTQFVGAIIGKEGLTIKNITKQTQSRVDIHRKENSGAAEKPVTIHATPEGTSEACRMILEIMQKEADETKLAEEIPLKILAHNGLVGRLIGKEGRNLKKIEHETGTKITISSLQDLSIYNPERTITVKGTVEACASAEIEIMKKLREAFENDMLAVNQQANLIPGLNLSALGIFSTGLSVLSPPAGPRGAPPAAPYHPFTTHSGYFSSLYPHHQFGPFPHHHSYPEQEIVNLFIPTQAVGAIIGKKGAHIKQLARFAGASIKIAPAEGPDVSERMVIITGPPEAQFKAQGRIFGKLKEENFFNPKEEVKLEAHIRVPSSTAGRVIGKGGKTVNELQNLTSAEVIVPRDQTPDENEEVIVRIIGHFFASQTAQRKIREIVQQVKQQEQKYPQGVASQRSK
TUBB2A, sequence (Q13885 whole entry): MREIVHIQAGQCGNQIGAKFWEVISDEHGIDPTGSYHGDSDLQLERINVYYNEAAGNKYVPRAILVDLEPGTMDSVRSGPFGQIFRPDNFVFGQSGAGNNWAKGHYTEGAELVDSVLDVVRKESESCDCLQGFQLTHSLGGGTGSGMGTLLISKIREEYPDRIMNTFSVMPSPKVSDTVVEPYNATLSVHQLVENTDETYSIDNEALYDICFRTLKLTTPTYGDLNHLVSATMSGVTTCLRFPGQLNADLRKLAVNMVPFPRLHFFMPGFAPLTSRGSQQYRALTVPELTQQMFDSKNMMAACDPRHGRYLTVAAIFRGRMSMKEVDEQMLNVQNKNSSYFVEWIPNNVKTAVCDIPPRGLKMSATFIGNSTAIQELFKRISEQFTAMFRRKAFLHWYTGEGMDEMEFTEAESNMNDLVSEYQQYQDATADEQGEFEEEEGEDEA
IGF2BP3, sequence (O00425 whole entry): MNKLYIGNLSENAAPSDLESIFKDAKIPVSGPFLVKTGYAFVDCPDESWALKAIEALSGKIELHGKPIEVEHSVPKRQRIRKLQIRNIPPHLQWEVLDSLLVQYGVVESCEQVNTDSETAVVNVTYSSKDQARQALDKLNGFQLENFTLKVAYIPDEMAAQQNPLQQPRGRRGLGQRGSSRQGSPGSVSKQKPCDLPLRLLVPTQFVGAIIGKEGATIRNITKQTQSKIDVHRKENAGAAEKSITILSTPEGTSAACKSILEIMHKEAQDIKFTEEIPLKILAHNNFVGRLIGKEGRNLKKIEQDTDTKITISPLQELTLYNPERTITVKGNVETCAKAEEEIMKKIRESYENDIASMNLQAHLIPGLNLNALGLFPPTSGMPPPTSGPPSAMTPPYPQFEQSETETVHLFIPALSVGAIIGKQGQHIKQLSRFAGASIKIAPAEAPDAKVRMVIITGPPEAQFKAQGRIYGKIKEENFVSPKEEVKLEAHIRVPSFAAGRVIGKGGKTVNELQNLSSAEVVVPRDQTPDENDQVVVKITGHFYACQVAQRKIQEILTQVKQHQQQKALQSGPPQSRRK
SRRM2, sequence (Q9UQ35 whole entry): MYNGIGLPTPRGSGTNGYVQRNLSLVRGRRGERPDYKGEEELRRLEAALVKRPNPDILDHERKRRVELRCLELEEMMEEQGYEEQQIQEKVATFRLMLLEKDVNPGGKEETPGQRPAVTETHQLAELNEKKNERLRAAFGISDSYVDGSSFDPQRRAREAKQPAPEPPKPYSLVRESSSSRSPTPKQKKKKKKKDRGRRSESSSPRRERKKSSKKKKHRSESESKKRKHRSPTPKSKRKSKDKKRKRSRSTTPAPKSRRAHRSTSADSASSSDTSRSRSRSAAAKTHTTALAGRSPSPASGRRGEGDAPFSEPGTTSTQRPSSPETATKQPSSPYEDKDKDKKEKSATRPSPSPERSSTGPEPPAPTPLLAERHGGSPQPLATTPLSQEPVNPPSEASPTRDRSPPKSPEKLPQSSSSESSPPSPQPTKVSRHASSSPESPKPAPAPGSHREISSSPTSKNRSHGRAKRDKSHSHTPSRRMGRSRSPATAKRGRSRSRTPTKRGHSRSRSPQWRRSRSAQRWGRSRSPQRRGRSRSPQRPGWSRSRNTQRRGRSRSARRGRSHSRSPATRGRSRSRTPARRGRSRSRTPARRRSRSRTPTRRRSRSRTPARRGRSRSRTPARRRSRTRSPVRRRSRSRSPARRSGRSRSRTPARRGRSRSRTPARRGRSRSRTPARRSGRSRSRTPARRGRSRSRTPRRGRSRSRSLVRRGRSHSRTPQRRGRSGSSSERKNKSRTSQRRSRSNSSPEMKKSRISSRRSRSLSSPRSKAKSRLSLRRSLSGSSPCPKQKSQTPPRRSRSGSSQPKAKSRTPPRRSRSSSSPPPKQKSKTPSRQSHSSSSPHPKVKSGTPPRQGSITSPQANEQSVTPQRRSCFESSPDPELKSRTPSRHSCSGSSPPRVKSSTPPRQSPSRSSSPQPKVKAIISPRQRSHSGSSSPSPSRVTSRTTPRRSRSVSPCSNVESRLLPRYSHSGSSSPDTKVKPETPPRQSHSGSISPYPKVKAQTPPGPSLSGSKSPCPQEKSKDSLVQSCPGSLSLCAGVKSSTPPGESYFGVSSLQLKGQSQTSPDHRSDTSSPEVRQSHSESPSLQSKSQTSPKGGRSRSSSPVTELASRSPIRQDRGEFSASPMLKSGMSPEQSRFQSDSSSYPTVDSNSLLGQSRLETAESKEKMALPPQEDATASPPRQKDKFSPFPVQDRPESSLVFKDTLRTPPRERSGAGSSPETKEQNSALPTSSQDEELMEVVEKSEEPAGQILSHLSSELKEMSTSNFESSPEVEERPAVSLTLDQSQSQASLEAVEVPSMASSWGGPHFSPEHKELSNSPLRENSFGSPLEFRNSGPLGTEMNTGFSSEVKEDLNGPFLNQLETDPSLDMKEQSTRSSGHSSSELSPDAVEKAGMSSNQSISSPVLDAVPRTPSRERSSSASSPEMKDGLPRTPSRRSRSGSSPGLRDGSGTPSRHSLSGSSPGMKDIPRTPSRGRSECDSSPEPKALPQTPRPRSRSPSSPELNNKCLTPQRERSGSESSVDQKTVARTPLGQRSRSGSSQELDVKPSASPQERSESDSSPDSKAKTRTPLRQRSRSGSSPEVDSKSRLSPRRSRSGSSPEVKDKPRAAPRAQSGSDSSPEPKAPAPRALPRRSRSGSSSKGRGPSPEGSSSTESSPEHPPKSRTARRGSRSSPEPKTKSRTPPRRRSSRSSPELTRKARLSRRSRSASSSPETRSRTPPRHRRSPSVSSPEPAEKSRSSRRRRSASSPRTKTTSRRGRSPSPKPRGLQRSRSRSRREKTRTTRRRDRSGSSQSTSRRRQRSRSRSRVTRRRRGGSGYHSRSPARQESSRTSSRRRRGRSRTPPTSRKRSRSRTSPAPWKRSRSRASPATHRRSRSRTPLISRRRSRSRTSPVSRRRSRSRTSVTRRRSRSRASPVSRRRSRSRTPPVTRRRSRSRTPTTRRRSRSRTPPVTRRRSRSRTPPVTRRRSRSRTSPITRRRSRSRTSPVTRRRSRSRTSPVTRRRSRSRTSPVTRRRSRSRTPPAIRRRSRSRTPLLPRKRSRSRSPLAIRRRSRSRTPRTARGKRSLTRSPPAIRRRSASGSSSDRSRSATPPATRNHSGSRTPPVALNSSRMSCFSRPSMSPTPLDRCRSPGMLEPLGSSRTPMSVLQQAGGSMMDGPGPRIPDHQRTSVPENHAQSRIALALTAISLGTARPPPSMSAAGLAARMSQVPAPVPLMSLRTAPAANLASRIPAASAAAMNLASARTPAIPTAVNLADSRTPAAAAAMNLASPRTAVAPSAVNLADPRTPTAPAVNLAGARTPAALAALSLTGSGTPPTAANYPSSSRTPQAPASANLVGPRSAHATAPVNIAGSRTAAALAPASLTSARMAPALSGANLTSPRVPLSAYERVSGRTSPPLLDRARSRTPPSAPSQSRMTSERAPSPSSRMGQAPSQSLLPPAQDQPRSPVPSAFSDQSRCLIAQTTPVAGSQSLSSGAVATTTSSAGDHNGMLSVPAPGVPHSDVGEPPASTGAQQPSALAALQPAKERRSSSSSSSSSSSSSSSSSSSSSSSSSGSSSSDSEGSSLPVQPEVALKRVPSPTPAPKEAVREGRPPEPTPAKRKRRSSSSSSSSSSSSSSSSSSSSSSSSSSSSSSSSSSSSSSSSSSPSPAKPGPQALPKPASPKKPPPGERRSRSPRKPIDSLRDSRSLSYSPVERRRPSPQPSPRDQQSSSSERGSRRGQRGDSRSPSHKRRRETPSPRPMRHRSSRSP

Sequence: CUGUCCU
- EC50 (RPS3): 307 nM
- EC50 (ANGEL2): 504 nM
- EC50 (DHX30): 113 nM
- EC50 (ICT1): 125 nM
- EC50 (IGF2BP3): 3770 nM
- EC50 (IGF2BP2): 2970 nM
- EC50 (MRPL21): 151 nM
- EC50 (MRPL1): 259 nM

Sequence: AAUAAA
- EC50 (AGO1): 379 nM
- EC50 (TUBB2A): 1090 nM
- EC50 (RPL7): 6980 nM
- EC50 (SRRM2): 1040 nM

Sequence: UAUUUAU
- EC50 (DAP3): 51.4 nM
